# Experimental data taken from patent US20230220042A1 (SHANGHAI JIAO TONG UNIVERSITY SCHOOL OF MEDICINE, published 2023).
# T1: Biotin-FcγRIIB (human, UniProt P31994 43-217, limits assumed, biotin-labelled)
# T1 construct: Bought, biotin-labelled; used at 1 µg/ml for staining and sorting; also called human FcγRIIB; CD32b
# T1 sequence (looked up): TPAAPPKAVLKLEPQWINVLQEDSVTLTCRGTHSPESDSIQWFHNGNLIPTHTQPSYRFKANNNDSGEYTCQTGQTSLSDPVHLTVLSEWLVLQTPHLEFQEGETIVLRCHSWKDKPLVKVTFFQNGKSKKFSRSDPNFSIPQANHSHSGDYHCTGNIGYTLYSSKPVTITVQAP
# Target: T1, Biotin-FcγRIIB
# Experiment: magnetic sorting on biotin-FcγRIIB with unlabelled activating FcγRs, NGS; Library2
# Method: 3T3 cells were collected by trypsin digestion, and a single cell suspension was prepared. […] The cells were incubated for 15 minutes on ice and then washed twice with MACS buffer and re-suspended in 100 μl MACS buffer. Twenty-five μl anti-Biotin magnetic beads were added, and the cells were incubated for 15 minutes on ice and then washed once with MACS buffer and re-suspended to 500 μl, and added to the LS column put in the magnetic field. The effluent was collected, washed with 3 mL of MACS buffer and collected; The LS column was then removed out of the magnetic field, and 5 mL of MACS buffer was used to rapidly elute the remaining cells from the sorting column to collect positive cells, which are the high I/A ratio cells.
# The high-FcγRIIB-affinity cells obtained from the above flow cytometry sorting are further sorted by magnetic-activated sorting. The cells are incubated with the mixture of Biotin-labeled FcγRIIB and non-labeled activating FcγRs, and then the labeled cells are sorted by anti-Biotin magnetic beads. The enrichment ratios after sorting relative to before sorting are analyzed by NGS.
Binder,Enrichment factor (percentage after sorting/percentage before sorting),Increased factor (mutation enrichment factor/wild-type enrichment factor),Percentage after sorting/unbinding percentage,Percentage before sorting/unbinding percentage
"human IgG2 anti-mouse CD40 surface displayed antibody, Fc mutant H268N (antibody, name in EU numbering, as m1; positions are Eu numbers; copies: 2 + 2) light chain (with the P2A rest): DTVLTQSPALAVSPGERVTISCRASDSVSTLMHWYQQKPGQQPKLLIYLASHLESGVPARFSGSGSGTDFTLTIDPVEADDTATYYCQQSWNDPWTFGGGTKLELKRTVAAPSVFIFPPSDEQLKSGTASVVCLLNNFYPREAKVQWKVDNALQSGNSQESVTEQDSKDSTYSLSSTLTLSKADYEKHKVYACEVTHQGLSSPVTKSFNRGECGSGATNFSLLKQAGDVEENPG heavy chain: EVQLVESDGGLVQPGRSLKLPCAASGFTFSDYYMAWVRQAPTKGLEWVASISYDGSSTYYRDSVKGRFTISRDNAKSTLYLQMDSLRSEDTATYYCGRHSSYFDYWGQGVMVTVSSASTKGPSVFPLAPCSRSTSESTAALGCLVKDYFPEPVTVSWNSGALTSGVHTFPAVLQSSGLYSLSSVVTVPSSNFGTQTYTCNVDHKPSNTKVDKTVERKCCVECPPCPAPPVAGPSVFLFPPKPKDTLMISRTPEVTCVVVDVSNEDPEVQFNWYVDGVEVHNAKTKPREEQFNSTFRVVSVLTVVHQDWLNGKEYKCKVSNKGLPAPIEKTISKTKGQPREPQVYTLPPSREEMTKNQVSLTCLVKGFYPSDIAVEWESNGQPENNYKTTPPMLDSDGSFFLYSKLTVDKSRWQQGNVFSCSVMHEALHNHYTQKSLSLSPGKLEPPPSTVSNMATVAVLVVLGAAIVTGAVVAFVMKMRRRNTGGKGGDYALAPGSQTSDLSLPDCKVMVHDPHSLA",2.31,2.79,662,286
"human IgG2 anti-mouse CD40 surface displayed antibody, Fc mutant P271L (antibody, name in EU numbering, as m1; positions are Eu numbers; copies: 2 + 2) light chain (with the P2A rest): DTVLTQSPALAVSPGERVTISCRASDSVSTLMHWYQQKPGQQPKLLIYLASHLESGVPARFSGSGSGTDFTLTIDPVEADDTATYYCQQSWNDPWTFGGGTKLELKRTVAAPSVFIFPPSDEQLKSGTASVVCLLNNFYPREAKVQWKVDNALQSGNSQESVTEQDSKDSTYSLSSTLTLSKADYEKHKVYACEVTHQGLSSPVTKSFNRGECGSGATNFSLLKQAGDVEENPG heavy chain: EVQLVESDGGLVQPGRSLKLPCAASGFTFSDYYMAWVRQAPTKGLEWVASISYDGSSTYYRDSVKGRFTISRDNAKSTLYLQMDSLRSEDTATYYCGRHSSYFDYWGQGVMVTVSSASTKGPSVFPLAPCSRSTSESTAALGCLVKDYFPEPVTVSWNSGALTSGVHTFPAVLQSSGLYSLSSVVTVPSSNFGTQTYTCNVDHKPSNTKVDKTVERKCCVECPPCPAPPVAGPSVFLFPPKPKDTLMISRTPEVTCVVVDVSHEDLEVQFNWYVDGVEVHNAKTKPREEQFNSTFRVVSVLTVVHQDWLNGKEYKCKVSNKGLPAPIEKTISKTKGQPREPQVYTLPPSREEMTKNQVSLTCLVKGFYPSDIAVEWESNGQPENNYKTTPPMLDSDGSFFLYSKLTVDKSRWQQGNVFSCSVMHEALHNHYTQKSLSLSPGKLEPPPSTVSNMATVAVLVVLGAAIVTGAVVAFVMKMRRRNTGGKGGDYALAPGSQTSDLSLPDCKVMVHDPHSLA",4.43,5.34,143,32.3
"human IgG2 anti-mouse CD40 surface displayed antibody, Fc mutant P271I (antibody, name in EU numbering, as m1; positions are Eu numbers; copies: 2 + 2) light chain (with the P2A rest): DTVLTQSPALAVSPGERVTISCRASDSVSTLMHWYQQKPGQQPKLLIYLASHLESGVPARFSGSGSGTDFTLTIDPVEADDTATYYCQQSWNDPWTFGGGTKLELKRTVAAPSVFIFPPSDEQLKSGTASVVCLLNNFYPREAKVQWKVDNALQSGNSQESVTEQDSKDSTYSLSSTLTLSKADYEKHKVYACEVTHQGLSSPVTKSFNRGECGSGATNFSLLKQAGDVEENPG heavy chain: EVQLVESDGGLVQPGRSLKLPCAASGFTFSDYYMAWVRQAPTKGLEWVASISYDGSSTYYRDSVKGRFTISRDNAKSTLYLQMDSLRSEDTATYYCGRHSSYFDYWGQGVMVTVSSASTKGPSVFPLAPCSRSTSESTAALGCLVKDYFPEPVTVSWNSGALTSGVHTFPAVLQSSGLYSLSSVVTVPSSNFGTQTYTCNVDHKPSNTKVDKTVERKCCVECPPCPAPPVAGPSVFLFPPKPKDTLMISRTPEVTCVVVDVSHEDIEVQFNWYVDGVEVHNAKTKPREEQFNSTFRVVSVLTVVHQDWLNGKEYKCKVSNKGLPAPIEKTISKTKGQPREPQVYTLPPSREEMTKNQVSLTCLVKGFYPSDIAVEWESNGQPENNYKTTPPMLDSDGSFFLYSKLTVDKSRWQQGNVFSCSVMHEALHNHYTQKSLSLSPGKLEPPPSTVSNMATVAVLVVLGAAIVTGAVVAFVMKMRRRNTGGKGGDYALAPGSQTSDLSLPDCKVMVHDPHSLA",2.63,3.17,,

# Next, values leading:
Enrichment factor (percentage after sorting/percentage before sorting),Increased factor (mutation enrichment factor/wild-type enrichment factor),Percentage after sorting/unbinding percentage,Percentage before sorting/unbinding percentage,Binder
2.74,3.3,22.2,8.1,"human IgG2 anti-mouse CD40 surface displayed antibody, Fc mutant P271S (antibody, name in EU numbering, as m1; positions are Eu numbers; copies: 2 + 2) light chain (with the P2A rest): DTVLTQSPALAVSPGERVTISCRASDSVSTLMHWYQQKPGQQPKLLIYLASHLESGVPARFSGSGSGTDFTLTIDPVEADDTATYYCQQSWNDPWTFGGGTKLELKRTVAAPSVFIFPPSDEQLKSGTASVVCLLNNFYPREAKVQWKVDNALQSGNSQESVTEQDSKDSTYSLSSTLTLSKADYEKHKVYACEVTHQGLSSPVTKSFNRGECGSGATNFSLLKQAGDVEENPG heavy chain: EVQLVESDGGLVQPGRSLKLPCAASGFTFSDYYMAWVRQAPTKGLEWVASISYDGSSTYYRDSVKGRFTISRDNAKSTLYLQMDSLRSEDTATYYCGRHSSYFDYWGQGVMVTVSSASTKGPSVFPLAPCSRSTSESTAALGCLVKDYFPEPVTVSWNSGALTSGVHTFPAVLQSSGLYSLSSVVTVPSSNFGTQTYTCNVDHKPSNTKVDKTVERKCCVECPPCPAPPVAGPSVFLFPPKPKDTLMISRTPEVTCVVVDVSHEDSEVQFNWYVDGVEVHNAKTKPREEQFNSTFRVVSVLTVVHQDWLNGKEYKCKVSNKGLPAPIEKTISKTKGQPREPQVYTLPPSREEMTKNQVSLTCLVKGFYPSDIAVEWESNGQPENNYKTTPPMLDSDGSFFLYSKLTVDKSRWQQGNVFSCSVMHEALHNHYTQKSLSLSPGKLEPPPSTVSNMATVAVLVVLGAAIVTGAVVAFVMKMRRRNTGGKGGDYALAPGSQTSDLSLPDCKVMVHDPHSLA"
1.86,2.25,52.5,28.2,"human IgG2 anti-mouse CD40 surface displayed antibody, Fc mutant S267W (antibody, name in EU numbering, as m1; positions are Eu numbers; copies: 2 + 2) light chain (with the P2A rest): DTVLTQSPALAVSPGERVTISCRASDSVSTLMHWYQQKPGQQPKLLIYLASHLESGVPARFSGSGSGTDFTLTIDPVEADDTATYYCQQSWNDPWTFGGGTKLELKRTVAAPSVFIFPPSDEQLKSGTASVVCLLNNFYPREAKVQWKVDNALQSGNSQESVTEQDSKDSTYSLSSTLTLSKADYEKHKVYACEVTHQGLSSPVTKSFNRGECGSGATNFSLLKQAGDVEENPG heavy chain: EVQLVESDGGLVQPGRSLKLPCAASGFTFSDYYMAWVRQAPTKGLEWVASISYDGSSTYYRDSVKGRFTISRDNAKSTLYLQMDSLRSEDTATYYCGRHSSYFDYWGQGVMVTVSSASTKGPSVFPLAPCSRSTSESTAALGCLVKDYFPEPVTVSWNSGALTSGVHTFPAVLQSSGLYSLSSVVTVPSSNFGTQTYTCNVDHKPSNTKVDKTVERKCCVECPPCPAPPVAGPSVFLFPPKPKDTLMISRTPEVTCVVVDVWHEDPEVQFNWYVDGVEVHNAKTKPREEQFNSTFRVVSVLTVVHQDWLNGKEYKCKVSNKGLPAPIEKTISKTKGQPREPQVYTLPPSREEMTKNQVSLTCLVKGFYPSDIAVEWESNGQPENNYKTTPPMLDSDGSFFLYSKLTVDKSRWQQGNVFSCSVMHEALHNHYTQKSLSLSPGKLEPPPSTVSNMATVAVLVVLGAAIVTGAVVAFVMKMRRRNTGGKGGDYALAPGSQTSDLSLPDCKVMVHDPHSLA"
2.91,3.51,,,"human IgG2 anti-mouse CD40 surface displayed antibody, Fc mutant S267N (antibody, name in EU numbering, as m1; positions are Eu numbers; copies: 2 + 2) light chain (with the P2A rest): DTVLTQSPALAVSPGERVTISCRASDSVSTLMHWYQQKPGQQPKLLIYLASHLESGVPARFSGSGSGTDFTLTIDPVEADDTATYYCQQSWNDPWTFGGGTKLELKRTVAAPSVFIFPPSDEQLKSGTASVVCLLNNFYPREAKVQWKVDNALQSGNSQESVTEQDSKDSTYSLSSTLTLSKADYEKHKVYACEVTHQGLSSPVTKSFNRGECGSGATNFSLLKQAGDVEENPG heavy chain: EVQLVESDGGLVQPGRSLKLPCAASGFTFSDYYMAWVRQAPTKGLEWVASISYDGSSTYYRDSVKGRFTISRDNAKSTLYLQMDSLRSEDTATYYCGRHSSYFDYWGQGVMVTVSSASTKGPSVFPLAPCSRSTSESTAALGCLVKDYFPEPVTVSWNSGALTSGVHTFPAVLQSSGLYSLSSVVTVPSSNFGTQTYTCNVDHKPSNTKVDKTVERKCCVECPPCPAPPVAGPSVFLFPPKPKDTLMISRTPEVTCVVVDVNHEDPEVQFNWYVDGVEVHNAKTKPREEQFNSTFRVVSVLTVVHQDWLNGKEYKCKVSNKGLPAPIEKTISKTKGQPREPQVYTLPPSREEMTKNQVSLTCLVKGFYPSDIAVEWESNGQPENNYKTTPPMLDSDGSFFLYSKLTVDKSRWQQGNVFSCSVMHEALHNHYTQKSLSLSPGKLEPPPSTVSNMATVAVLVVLGAAIVTGAVVAFVMKMRRRNTGGKGGDYALAPGSQTSDLSLPDCKVMVHDPHSLA"
